Molecular target: Cy5-S15(T79C), 30S ribosomal protein S15 (Escherichia coli, UniProt P0ADZ4 1-89, T79C)
Test: single-molecule FRET (ZMW); pre-folded; >80% of molecules bind stably; read-out is H20-H22 closure, S15 label in this assay not stated; 50 mM Tris pH 7.5, 14 mM MgCl2, 20 mM NaCl, 150 mM KCl, 0.04 mM EDTA, 40 ug/ml BSA, 0.01% Triton X-100, 2 mM spermidine, 1 mM putrescine; 20 C unless stated; 0.

B1: 85 nt minimal 3-way junction (p0099A/B/C) (structured_RNA)
RNA 1: GGCGCACGCAGGCGGUUUGCCG
RNA 2: CGGCAAGCUUGAGUCUCGUAGAGGGGGGU
RNA 3: GCCCCCUGGACGAAGACUGACGCUCAGGUGCGCC
binding result: binds

From publication PMC6269517
